Measurements as given in US20260035464A1 (STAIDSON BIOPHARMA, published 2026).

Legend:
[1] = target: T1, human BTLA (Uniprot Q7Z6A9) expressed on cells (human, UniProt Q7Z6A9 31-289); test: cell-based or functional assay
[2] = target: T2, huBTLA as coated in the binding ELISA of Example 3 (tag not stated) (human, UniProt Q7Z6A9 31-157); test: ELISA, huBTLA coated at 0.333 ug/mL, anti-human IgG Fc-AP detection
T2 construct: Detection was with anti-human IgG Fc
T2 sequence: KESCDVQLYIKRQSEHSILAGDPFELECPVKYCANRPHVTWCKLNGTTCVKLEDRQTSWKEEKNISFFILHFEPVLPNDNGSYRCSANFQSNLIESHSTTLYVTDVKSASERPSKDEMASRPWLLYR
Protocol: (§1) BTLA binding of purified recombinant chimeric antibodies by ELISA: The huBTLA and rhesus monkey BTLA antigen binding ELISA was performed on the purified recombinant chimeric antibodies. Briefly, 384-well, clear flat bottom high binding plates (Corning, cat #3700) were coated overnight at 4° C. with 0.333 μg/mL of huBTLA or rhesus monkey BTLA in PBS. The following purified process was performed as described in ELISA binding assay in Example 2, except that the secondary antibody was goat anti human IgG Fc-AP (Southern Biotech, cat #2014-04).

[3] = target: T3, human BTLA extracellular domain with C-terminal mouse IgG2a Fc tag (human; mouse, UniProt Q7Z6A9 31-157); test: blocking ELISA, huBTLA-mIgG2a Fc coated; competitor huHVEM-His (2 ug/ml)
T3 construct: also called huBTLA with mIgG2a Fc tag; not shown: mouse IgG2a Fc, C-terminal
T3 sequence: T2 sequence
Protocol: HVEM blocking by purified recombinant chimeric antibodies by ELISA: Human HVEM (huHVEM) blocking ELISA was performed on purified recombinant chimeric anti-BTLA antibodies. Briefly, 384-well, clear flat bottom high binding plates (Corning, cat #3700) were coated overnight at 4° C. with 0.333 μg/mL purified huBTLA with mIgG2a Fc tag in PBS (coating solution). After removing the coating solution, the plates were blocked by adding blocking buffer and incubated at 37° C. for 1 hour. Plates were then washed 3 times with wash buffer. Serial dilution of purified chimeric antibodies in PBS were added to individual well followed by incubation at 37° C. for 1 hour. Plates were washed 3 times with wash buffer. Then 30 μL per well of 2 μg/ml human HVEM with His tag (Sino Biological, cat #10334-H08H) in assay buffer was added into the reaction and incubated for 1 hour. Plates were washed 3 times with wash buffer. Then 30 μL per well of mouse anti-his-AP (Southern Biotech, cat: 4603-04) at 1:500 dilution in ELISA diluent was added, and incubated at 37° C. for 30 min, then the plates were washed 5 times with wash buffer and developed for 30 minutes with 30 μL per well of pNPP substrate. Plates were analyzed with a Bio-TEK at 405 nm. The blocking IC₅₀ value represents the antibody concentration that inhibited 50% of huHVEM binding to coated human BTLA.

[4] = target: T1, human BTLA (Uniprot Q7Z6A9) expressed …; test: flow cytometry on Expi293 cells stably overexpressing huBTLA, PE anti-human Fc
Description: To examine the binding of the chimeric anti-BTLA antibodies to huBTLA overexpressing cells, Expi293 cells stably overexpressing huBTLA were used to perform FACS analysis. Briefly, the coding sequence of huBTLA (Uniprot, Q7Z6A9) was cloned into a lentiviral vector and the recombinant virus was packaged according to the instruction of the virus packaging kit (Lenti-X™ Packaging Single Shots, Cat #631275, Takada). The Expi293 cells were transduced with the recombinant virus.
(§2) Expi293 cells stably overexpressing huBTLA were incubated with the chimeric anti-BTLA antibodies 83F2 or 86B7 in PBS containing 0.5% BSA, 1 mM EDTA, and 0.1% sodium azide (FACS buffer) for 30 minutes at 4° C. The cells were washed, and then incubated with 10 nM phycoerythrin (PE) conjugated anti-Human Fc Ab (BioLegend, cat #409304) for 20 minutes at 4° C. Cells were washed and then analyzed by flow cytometry with Attune (ThermoFisher Scientific). Data were analyzed with FlowJo software. Antibody binding is represented as median fluorescence intensity (MFI).

[5] = target: T4, rhesus monkey BTLA extracellular domain protein with His tag (Sino Biological, cat #90250-C08H) (rhesus monkey, UniProt G7MKA9 31-157); test: ELISA, rhesus monkey BTLA coated at 0.333 ug/mL, anti-human IgG Fc-AP detection
T4 construct: extracellular domain; Bought protein; also called His-tag-rhesus monkey BTLA; not shown: His tag
T4 sequence: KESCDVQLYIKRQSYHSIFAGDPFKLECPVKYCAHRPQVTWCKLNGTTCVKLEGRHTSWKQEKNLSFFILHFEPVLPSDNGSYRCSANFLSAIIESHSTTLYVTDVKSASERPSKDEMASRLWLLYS
Protocol: as §1

[6] = target: T2, huBTLA as coated in the binding ELISA …; test: ELISA, plate coated with huBTLA, detection with goat anti-human IgG Fc-AP, OD405
Protocol: as §1

[7] = target: T5, human BTLA extracellular domain with C-terminal 10xHis tag (human, UniProt Q7Z6A9 31-157); test: BLI (Octet RED96), antibody captured on AHC biosensor, His-tag-huBTLA in solution, 1:1 model
T5 construct: also called HuBTLA-His; His-tag-huBTLA
T5 sequence: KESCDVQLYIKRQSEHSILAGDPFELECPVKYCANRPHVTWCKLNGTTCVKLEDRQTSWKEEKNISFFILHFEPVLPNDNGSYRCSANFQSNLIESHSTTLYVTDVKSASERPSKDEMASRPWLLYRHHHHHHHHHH
Protocol: (§3) The following kinetic assay was performed using anti-human IgG Fc capture (AHC) biosensors (ForteBio) in kinetics buffer (PBS, 0.1% Tween-20 and 1% bovine serum albumin): (a) antibody (2 μg/mL) for 300 sec, (b) baseline for 120 sec, (c) association with purified His-tag-huBTLA (2.5, 0.5 and 0 μg/mL) and His-tag-rhesus monkey BTLA (Sino Biologcal, cat #90250-C08H) (2.5, 0.5 and 0 μg/mL) for 420 sec and (d) dissociation for 1200 sec. Data fitting and analysis was performed with Octet data analysis software 8.0 (ForteBio) using a 1:1 binding model after Savitzky-Golay filtering.

[8] = target: T4, rhesus monkey BTLA extracellular domain …; test: ELISA, plate coated with rhesus monkey BTLA, detection with goat anti-human IgG Fc-AP, OD405
Protocol: as §1

[9] = target: T1, human BTLA (Uniprot Q7Z6A9) expressed …; test: flow cytometry blocking on huBTLA-overexpressing Expi293 cells; competitor human HVEM-mouse IgG2a Fc
Protocol: (§4) Expi293 cells stably overexpressing huBTLA were incubated with chimeric anti-BTLA antibody 83F2 or 86B7 for 30 minutes at 4° C. The cells were washed, and then incubated with human HVEM-mouse IgG2a Fc recombinant protein (Acro Biosystems, cat #HVM-H5255) at […] concentration for 20 minutes at 4° C. The human HVEM bindings were detected by goat anti-mouse Alexa 488 secondary antibody (ThermoFisher, cat #A-11029). Cells were washed and acquired by flow cytometry with Attune. Data were analyzed with FlowJo software. BTLA binding is represented as MFI.

[10] = target: T6, extracellular domain of human BTLA with FAS, expressed on Jurkat cells (human, UniProt Q7Z6A9 31-157; P25445 174-335, limits assumed); test: cell-based or functional assay
T6 sequence (looked up): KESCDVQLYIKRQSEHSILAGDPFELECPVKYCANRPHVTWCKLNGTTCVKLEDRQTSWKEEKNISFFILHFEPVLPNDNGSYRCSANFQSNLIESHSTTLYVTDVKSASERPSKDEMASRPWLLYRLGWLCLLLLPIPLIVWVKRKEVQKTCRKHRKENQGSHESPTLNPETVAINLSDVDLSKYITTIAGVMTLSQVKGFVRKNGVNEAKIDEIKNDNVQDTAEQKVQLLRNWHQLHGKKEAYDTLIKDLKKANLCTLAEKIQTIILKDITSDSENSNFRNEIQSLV

[11] = target: T1, human BTLA (Uniprot Q7Z6A9) expressed …; test: cell-based or functional assay; remark: listed apart in the source
[12] = target: T1, human BTLA (Uniprot Q7Z6A9) expressed …; test: flow cytometry on huBTLA-overexpressing Expi293 cells, MFI
Protocol: as §2
FACS based binding assays of humanized anti-BTLA antibodies were performed as described above in Example 3.

[13] = target: T5, human BTLA extracellular domain with …; test: BLI (Octet RED96), antibody on AHC biosensor, His-tag-huBTLA in solution
Protocol: as §3
(§5) Binding affinities (monovalent Kd) of humanized anti-BTLA antibodies were determined using Biolayer interferometry on the Octet RED96 instrument (ForteBio) as described above in Example 3, except for (c) association with His-tag-huBTLA ([…]) for 420 sec.

[14] = target: T5, human BTLA extracellular domain with …; test: BLI (Octet RED96), antibody on AHC biosensor, His-tag-huBTLA in solution; column head prints nM, but Koff/Kon shows the values are in M
Protocol: as §3, §5

[15] = target: T1, human BTLA (Uniprot Q7Z6A9) expressed …; test: flow cytometry blocking assay on huBTLA-overexpressing Expi293 cells, antibody titrated, soluble human HVEM-mouse IgG2a Fc detected
Protocol: as §4
FACS based blocking assays of humanized anti-BTLA antibodies were performed as described above in Example 3.

[16] = target: T1, human BTLA (Uniprot Q7Z6A9) expressed …; test: flow cytometry blocking assay, Expi293-huBTLA cells pre-incubated with titrated SB2003-12, then His-mouse HVEM (concentration not given) and PE anti-His antibody
Protocol: (§6) Cells were washed and stained with PE conjugated anti-His antibody (Thermofisher Scientific, CAT: TA150130). For antibody blocking assay, the exemplary humanized anti-BTLA antibody SB2003-12 was pre-incubated with the cell line followed by mouse HVEM and anti-His antibody staining. Cells were washed and fixed with 2% PFA and were analyzed by flow cytometry with Attune. MFI of HVEM staining was analyzed with FlowJo software.

[17] = target: T1, human BTLA (Uniprot Q7Z6A9) expressed …; test: flow cytometry, His-mouse HVEM on Expi293-huBTLA cells, PE anti-His antibody, MFI
Protocol: as §6

B1: chimeric anti-BTLA antibody 83F2 (antibody, V domains shown)
VH: QVQFQQSGAELARPGASVKLSCKASGYTFTDFWIQWVKQRPGQGLEWIGTIYPGDGDTRENQKFKGRATLTADKSSSTAYMQLSSLESDDSAVYYCARGNGNSWFAYWGQGTLVTVSA
VL: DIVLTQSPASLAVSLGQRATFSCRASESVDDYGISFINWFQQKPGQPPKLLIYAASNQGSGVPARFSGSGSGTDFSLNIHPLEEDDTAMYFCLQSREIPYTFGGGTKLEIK
- EC50 of recovery of IL-2 production, Raji-HVEM/Jurkat-BTLA coculture [1]: 1.85 nM
- EC50 [2]: 0.0564 nM
- IC50 [3]: 1.24 nM
- EC50 [4]: 1.85 nM
- EC50 [5]: 0.0542 nM
- EC50 (read off the curve) [6]: ~0.4 nM
- Kd [7]: 2.91 nM
- koff [7]: 0.000548 s⁻¹
- kon [7]: 188000 M⁻¹ s⁻¹
- EC50 (read off the curve) [8]: ~0.4 nM
- IC50 [9]: 0.656 nM

B2: humanized anti-BTLA antibody SB2003-12 (antibody, V domains shown)
VH: QVTLKESGPTLVKPTQTLTLTCTFSGFSLSTFGMGVSWIRQPPGKALEWLAHIYWDDDKRFNPSLKSRLTITKDTSKNQVVLTMTNMDPVDTATYYCAHGNWDGETYFDYWGQGTLVTVSS
VL: DVVMTQSPLSLPVTLGQPASISCKSTQSLLDSDGKTYLNWLQQRPGQSPRSLIYLVSKLDSGVPDRFSGSGSGTDFTLKISRVEAEDVGVYYCWQGTHFPWTFGQGTKVEIK
- EC50 of inhibition of huHVEM-Fc-induced apoptosis, Jurkat-huBTLA-FAS cells (ATP luminescence) [10]: 0.0614 nM
- EC50 of recovery of IL-2 production, Raji-HVEM/primary human T cell coculture [11]: 4.91 nM
- EC50 (read off the curve) [12]: ~0.8 nM
- koff [13]: 8.05e-05 s⁻¹
- kon [13]: 418000 M⁻¹ s⁻¹
- Kd [14]: 0.198 nM
- IC50 (read off the curve) [15]: ~0.4 nM
- IC50 (read off the curve) [16]: ~2 nM

B3: His-mouse HVEM protein (Sino Biological, cat #10567-M03H) (ligand, UniProt Q80WM9 39-206, looked up)
chain: QPSCRQEEFLVGDECCPMCNPGYHVKQVCSEHTGTVCAPCPPQTYTAHANGLSKCLPCGVCDPDMGLLTWQECSSWKDTVCRCIPGYFCENQDGSHCSTCLQHTTCPPGQRVEKRGTHDQDTVCADCLTGTFSLGGTQEECLPWTNCSAFQQEVRRGTNSTDTTCSSQ
notes: Bought protein; also called musHVEM; not shown: His tag
- EC50 (read off the curve) [17]: ~2 nM
